# Test results from the supplement of paper PMC6757056.
# ± gives the standard deviation of the averaged measurements.
# B1: library; a variant is named by its letters at N, in order (parent)
# chain: GCUGUCACCGAGAAACUGUGAAGUAUAUCUUAAACCUGGGCACUUAAAAGAUAUAUGGAGUUAGUAGUGCAACCUGCUCGGUCUGAUGAGUCCNNNNNNGGACGAAACAGC
# What was measured:
# cyclic di-GMP [1] = variants of: B1; test: normalized RNA/DNA level without ligand (relative to sTRSVctl = 100) (log10 (% of sTRSVctl)); HEK293T; ligand: cyclic di-GMP (c-di-GMP-II aptamer); higher = less ribozyme self-cleavage, higher mRNA level; settings: reporter: mCherry (pCS4076), ligand present: no
# How it was run: (§1)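 HEK293T cells received ligand, where used, 1 h before being transfected with 4 µg per 6-well well of library plasmids encoding reporter-linked ribozyme switches. After 72 h, RNA was extracted with EDTA and sequenced. RNA level was derived from RNA reads per DNA read, normalized to a spiked-in non-cleaving sequence or the top sequences, then scaled and log-transformed. Values were ×100 then log10, the top set was 25 sequences, and the minimum was 100 DNA reads.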
# cyclic di-GMP [2] = variants of: B1; test: normalized RNA/DNA level with ligand (relative to sTRSVctl = 100) (log10 (% of sTRSVctl)); HEK293T; ligand: cyclic di-GMP (c-di-GMP-II aptamer); ligand concentration (+) RNA-Seq: 1 mM; higher = less ribozyme self-cleavage, higher mRNA level; settings: reporter: mCherry (pCS4076), ligand present: yes
# How it was run: as §1
variant,measurement,setting,value
GCUGUCACCGAGAAACUGUGAAGUAUAUCUUAAACCUGGGCACUUAAAAGAUAUAUGGAGUUAGUAGUGCAACCUGCUCGGUCUGAUGAGUCCGGGCAAGGACGAAACAGC [GGGCAA],normalized RNA/DNA level without ligand (log10),cyclic di-GMP [1],1.72 ± 0.046
same,normalized RNA/DNA level with ligand (log10),cyclic di-GMP [2],1.8 ± 0.026
GCUGUCACCGAGAAACUGUGAAGUAUAUCUUAAACCUGGGCACUUAAAAGAUAUAUGGAGUUAGUAGUGCAACCUGCUCGGUCUGAUGAGUCCGGGCACGGACGAAACAGC [GGGCAC],normalized RNA/DNA level without ligand (log10),cyclic di-GMP [1],1.78 ± 0.042
same,normalized RNA/DNA level with ligand (log10),cyclic di-GMP [2],1.89 ± 0.074
GCUGUCACCGAGAAACUGUGAAGUAUAUCUUAAACCUGGGCACUUAAAAGAUAUAUGGAGUUAGUAGUGCAACCUGCUCGGUCUGAUGAGUCCGGGCAGGGACGAAACAGC [GGGCAG],normalized RNA/DNA level without ligand (log10),cyclic di-GMP [1],1.823 ± 0.015
same,normalized RNA/DNA level with ligand (log10),cyclic di-GMP [2],1.89 ± 0.045
GCUGUCACCGAGAAACUGUGAAGUAUAUCUUAAACCUGGGCACUUAAAAGAUAUAUGGAGUUAGUAGUGCAACCUGCUCGGUCUGAUGAGUCCUGGCCCGGACGAAACAGC [UGGCCC],normalized RNA/DNA level without ligand (log10),cyclic di-GMP [1],1.88 ± 0.062
same,normalized RNA/DNA level with ligand (log10),cyclic di-GMP [2],1.96 ± 0.094
GCUGUCACCGAGAAACUGUGAAGUAUAUCUUAAACCUGGGCACUUAAAAGAUAUAUGGAGUUAGUAGUGCAACCUGCUCGGUCUGAUGAGUCCUGGCCUGGACGAAACAGC [UGGCCU],normalized RNA/DNA level without ligand (log10),cyclic di-GMP [1],1.84 ± 0.12
same,normalized RNA/DNA level with ligand (log10),cyclic di-GMP [2],1.97 ± 0.15
GCUGUCACCGAGAAACUGUGAAGUAUAUCUUAAACCUGGGCACUUAAAAGAUAUAUGGAGUUAGUAGUGCAACCUGCUCGGUCUGAUGAGUCCUGGCCGGGACGAAACAGC [UGGCCG],normalized RNA/DNA level without ligand (log10),cyclic di-GMP [1],1.9 ± 0.067
same,normalized RNA/DNA level with ligand (log10),cyclic di-GMP [2],1.96 ± 0.1
GCUGUCACCGAGAAACUGUGAAGUAUAUCUUAAACCUGGGCACUUAAAAGAUAUAUGGAGUUAGUAGUGCAACCUGCUCGGUCUGAUGAGUCCUGGCCAGGACGAAACAGC [UGGCCA],normalized RNA/DNA level without ligand (log10),cyclic di-GMP [1],1.79 ± 0.029
same,normalized RNA/DNA level with ligand (log10),cyclic di-GMP [2],1.86 ± 0.12
GCUGUCACCGAGAAACUGUGAAGUAUAUCUUAAACCUGGGCACUUAAAAGAUAUAUGGAGUUAGUAGUGCAACCUGCUCGGUCUGAUGAGUCCUGGAUCGGACGAAACAGC [UGGAUC],normalized RNA/DNA level without ligand (log10),cyclic di-GMP [1],1.699 ± 0.0067
same,normalized RNA/DNA level with ligand (log10),cyclic di-GMP [2],1.88 ± 0.097
GCUGUCACCGAGAAACUGUGAAGUAUAUCUUAAACCUGGGCACUUAAAAGAUAUAUGGAGUUAGUAGUGCAACCUGCUCGGUCUGAUGAGUCCUGGAUUGGACGAAACAGC [UGGAUU],normalized RNA/DNA level without ligand (log10),cyclic di-GMP [1],1.669 ± 0.0092
same,normalized RNA/DNA level with ligand (log10),cyclic di-GMP [2],1.81 ± 0.13
GCUGUCACCGAGAAACUGUGAAGUAUAUCUUAAACCUGGGCACUUAAAAGAUAUAUGGAGUUAGUAGUGCAACCUGCUCGGUCUGAUGAGUCCUGGAUGGGACGAAACAGC [UGGAUG],normalized RNA/DNA level without ligand (log10),cyclic di-GMP [1],1.62 ± 0.027
same,normalized RNA/DNA level with ligand (log10),cyclic di-GMP [2],1.82 ± 0.11
GCUGUCACCGAGAAACUGUGAAGUAUAUCUUAAACCUGGGCACUUAAAAGAUAUAUGGAGUUAGUAGUGCAACCUGCUCGGUCUGAUGAGUCCAGGCCAGGACGAAACAGC [AGGCCA],normalized RNA/DNA level without ligand (log10),cyclic di-GMP [1],1.721 ± 0.017
same,normalized RNA/DNA level with ligand (log10),cyclic di-GMP [2],1.85 ± 0.096
GCUGUCACCGAGAAACUGUGAAGUAUAUCUUAAACCUGGGCACUUAAAAGAUAUAUGGAGUUAGUAGUGCAACCUGCUCGGUCUGAUGAGUCCAGGCCCGGACGAAACAGC [AGGCCC],normalized RNA/DNA level without ligand (log10),cyclic di-GMP [1],1.86 ± 0.05
same,normalized RNA/DNA level with ligand (log10),cyclic di-GMP [2],1.95 ± 0.1
GCUGUCACCGAGAAACUGUGAAGUAUAUCUUAAACCUGGGCACUUAAAAGAUAUAUGGAGUUAGUAGUGCAACCUGCUCGGUCUGAUGAGUCCUGGCACGGACGAAACAGC [UGGCAC],normalized RNA/DNA level without ligand (log10),cyclic di-GMP [1],1.72 ± 0.043
same,normalized RNA/DNA level with ligand (log10),cyclic di-GMP [2],1.86 ± 0.024
GCUGUCACCGAGAAACUGUGAAGUAUAUCUUAAACCUGGGCACUUAAAAGAUAUAUGGAGUUAGUAGUGCAACCUGCUCGGUCUGAUGAGUCCUGGCAAGGACGAAACAGC [UGGCAA],normalized RNA/DNA level without ligand (log10),cyclic di-GMP [1],1.64 ± 0.028
same,normalized RNA/DNA level with ligand (log10),cyclic di-GMP [2],1.8 ± 0.1
GCUGUCACCGAGAAACUGUGAAGUAUAUCUUAAACCUGGGCACUUAAAAGAUAUAUGGAGUUAGUAGUGCAACCUGCUCGGUCUGAUGAGUCCUGGCAGGGACGAAACAGC [UGGCAG],normalized RNA/DNA level without ligand (log10),cyclic di-GMP [1],1.847 ± 0.0028
same,normalized RNA/DNA level with ligand (log10),cyclic di-GMP [2],1.93 ± 0.063
GCUGUCACCGAGAAACUGUGAAGUAUAUCUUAAACCUGGGCACUUAAAAGAUAUAUGGAGUUAGUAGUGCAACCUGCUCGGUCUGAUGAGUCCGGGCCCGGACGAAACAGC [GGGCCC],normalized RNA/DNA level without ligand (log10),cyclic di-GMP [1],1.92 ± 0.07
same,normalized RNA/DNA level with ligand (log10),cyclic di-GMP [2],1.99 ± 0.056
GCUGUCACCGAGAAACUGUGAAGUAUAUCUUAAACCUGGGCACUUAAAAGAUAUAUGGAGUUAGUAGUGCAACCUGCUCGGUCUGAUGAGUCCCGGAUGGGACGAAACAGC [CGGAUG],normalized RNA/DNA level without ligand (log10),cyclic di-GMP [1],1.64 ± 0.057
same,normalized RNA/DNA level with ligand (log10),cyclic di-GMP [2],1.77 ± 0.17
GCUGUCACCGAGAAACUGUGAAGUAUAUCUUAAACCUGGGCACUUAAAAGAUAUAUGGAGUUAGUAGUGCAACCUGCUCGGUCUGAUGAGUCCGGGAUUGGACGAAACAGC [GGGAUU],normalized RNA/DNA level without ligand (log10),cyclic di-GMP [1],1.66 ± 0.024
same,normalized RNA/DNA level with ligand (log10),cyclic di-GMP [2],1.77 ± 0.12
GCUGUCACCGAGAAACUGUGAAGUAUAUCUUAAACCUGGGCACUUAAAAGAUAUAUGGAGUUAGUAGUGCAACCUGCUCGGUCUGAUGAGUCCAGGCAAGGACGAAACAGC [AGGCAA],normalized RNA/DNA level without ligand (log10),cyclic di-GMP [1],1.45 ± 0.082
same,normalized RNA/DNA level with ligand (log10),cyclic di-GMP [2],1.6 ± 0.11
GCUGUCACCGAGAAACUGUGAAGUAUAUCUUAAACCUGGGCACUUAAAAGAUAUAUGGAGUUAGUAGUGCAACCUGCUCGGUCUGAUGAGUCCAGGCAUGGACGAAACAGC [AGGCAU],normalized RNA/DNA level without ligand (log10),cyclic di-GMP [1],1.63 ± 0.018
same,normalized RNA/DNA level with ligand (log10),cyclic di-GMP [2],1.83 ± 0.11
GCUGUCACCGAGAAACUGUGAAGUAUAUCUUAAACCUGGGCACUUAAAAGAUAUAUGGAGUUAGUAGUGCAACCUGCUCGGUCUGAUGAGUCCAGGCACGGACGAAACAGC [AGGCAC],normalized RNA/DNA level without ligand (log10),cyclic di-GMP [1],1.707 ± 0.011
same,normalized RNA/DNA level with ligand (log10),cyclic di-GMP [2],1.84 ± 0.12
GCUGUCACCGAGAAACUGUGAAGUAUAUCUUAAACCUGGGCACUUAAAAGAUAUAUGGAGUUAGUAGUGCAACCUGCUCGGUCUGAUGAGUCCAGGAUUGGACGAAACAGC [AGGAUU],normalized RNA/DNA level without ligand (log10),cyclic di-GMP [1],1.49 ± 0.032
same,normalized RNA/DNA level with ligand (log10),cyclic di-GMP [2],1.73 ± 0.12
GCUGUCACCGAGAAACUGUGAAGUAUAUCUUAAACCUGGGCACUUAAAAGAUAUAUGGAGUUAGUAGUGCAACCUGCUCGGUCUGAUGAGUCCCGGCCGGGACGAAACAGC [CGGCCG],normalized RNA/DNA level without ligand (log10),cyclic di-GMP [1],1.81 ± 0.035
same,normalized RNA/DNA level with ligand (log10),cyclic di-GMP [2],1.87 ± 0.11
GCUGUCACCGAGAAACUGUGAAGUAUAUCUUAAACCUGGGCACUUAAAAGAUAUAUGGAGUUAGUAGUGCAACCUGCUCGGUCUGAUGAGUCCCGGCCCGGACGAAACAGC [CGGCCC],normalized RNA/DNA level without ligand (log10),cyclic di-GMP [1],1.937 ± 0.016
same,normalized RNA/DNA level with ligand (log10),cyclic di-GMP [2],1.94 ± 0.061
GCUGUCACCGAGAAACUGUGAAGUAUAUCUUAAACCUGGGCACUUAAAAGAUAUAUGGAGUUAGUAGUGCAACCUGCUCGGUCUGAUGAGUCCCGGCCUGGACGAAACAGC [CGGCCU],normalized RNA/DNA level without ligand (log10),cyclic di-GMP [1],1.74 ± 0.018
same,normalized RNA/DNA level with ligand (log10),cyclic di-GMP [2],1.88 ± 0.11
GCUGUCACCGAGAAACUGUGAAGUAUAUCUUAAACCUGGGCACUUAAAAGAUAUAUGGAGUUAGUAGUGCAACCUGCUCGGUCUGAUGAGUCCCGGCAGGGACGAAACAGC [CGGCAG],normalized RNA/DNA level without ligand (log10),cyclic di-GMP [1],1.792 ± 0.0062
same,normalized RNA/DNA level with ligand (log10),cyclic di-GMP [2],1.86 ± 0.077
